This note sets out measurements from patent EP4350345A2.

Experiment [1] concerns the target purified interference factor(s) from serum of Donor A. Put plainly: SPR, interference factor on CM5 chip. On the technique in general: In SPR one partner is held on a chip, and binding of the other changes the refractive index at the surface.
For experiment [2], the target named is purified interference factor(s) from serum of Donor B. Put plainly: SPR, interference factor on CM5 chip.
Experiment [3] addresses purified interference factor(s) from serum of Donor C. Put plainly: SPR, interference factor on CM5 chip.
Experiment [4] addresses monoclonal antibody 21-4-3. Kind of experiment: SPR, 21-4-3 captured via anti-mouse IgG, 500 nM.

monoclonal antibody 21-4-3, sequence (VH, as listed by the source, chain 1 of 2): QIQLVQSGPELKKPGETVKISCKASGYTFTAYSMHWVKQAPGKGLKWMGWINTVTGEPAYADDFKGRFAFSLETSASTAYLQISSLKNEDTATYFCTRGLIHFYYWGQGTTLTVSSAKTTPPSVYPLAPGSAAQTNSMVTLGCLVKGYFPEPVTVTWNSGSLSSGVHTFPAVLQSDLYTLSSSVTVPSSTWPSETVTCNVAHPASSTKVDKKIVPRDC
monoclonal antibody 21-4-3, sequence (VL, as listed by the source, chain 2 of 2): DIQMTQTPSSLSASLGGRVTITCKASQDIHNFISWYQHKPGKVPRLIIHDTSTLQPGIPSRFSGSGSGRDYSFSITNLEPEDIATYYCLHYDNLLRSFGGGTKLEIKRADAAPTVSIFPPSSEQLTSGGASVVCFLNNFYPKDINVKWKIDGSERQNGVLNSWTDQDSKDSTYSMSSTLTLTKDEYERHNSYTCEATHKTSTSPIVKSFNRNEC

B1: Nanobody or Nanobody construct of SEQ ID NO: 38 (VHH)
chain: EVQLVESGGGLVQPGGSLRLSCAASGFTFSSYAMSWVRQAPGKGLEWVSGIKSSGDSTRYAGSVKGRFTISRDNAKNTLYLQMNSLRPEDTAVYYCAKSRVSRTGLYTYDNRGQGTLVTVSSGGGGSGGGGSGGGGSGGGGSEVQLVESGGGLVQPGGSLRLSCAASGRTFNNYAMGWFRQAPGKEREFVAAITRSGVRSGVSAIYGDSVKDRFTISRDNAKNTLYLQMNSLRPEDTAVYYCAASAIGSGALRRFEYDYSGQGTLVTVSSA
Consider B1, for which the values for the binding as % of Reference Sequence (=100%) in experiment [1], in experiment [2] and in experiment [3] were 9%, 25% and 7%, respectively.

B2: Nanobody or Nanobody construct of SEQ ID NO: 49 (VHH)
VHH: EVQLLESGGGLVQPGGSLRLSCAASGLPFSTKSMGWFRQAPGKGREFVSRISPGGTSRYYGDFVKGRFTISRDNSKNTLYLQMNSLRAEDTAVYYCASGERSTYIGSNYYRTNEYDYWGQGTLVTVSS
On to B2, for which the binding as % of Reference Sequence (=100%) in experiment [1] was 0%; in experiment [4], 4%.

B3: Nanobody or Nanobody construct of SEQ ID NO: 48 (VHH)
VHH: EVQLVESGGGLVQPGGSLRLSCIASGLPFSTKSMGWFRQAPGKEREFVARISPGGTSRYYGDFVKGRFAISRDNAKNTTWLQMNSLKAEDTAVYYCASGERSTYIGSNYYRTNEYDYWGTGTQVTVSS
Consider B3, for which the values for the binding as % of Reference Sequence (=100%) in experiment [1] and in experiment [4] were 0% and 3%, respectively.

B4: Nanobody or Nanobody construct of SEQ ID NO: 42 (VHH)
chain: EVQLVESGGGLVQPGGSLRLSCAASGRTFSYNPMGWFRQAPGKGRELVAAISRTGGSTYYPDSVEGRFTISRDNAKRMVYLQMNSLRAEDTAVYYCAAAGVRAEDGRVRTLPSEYTFWGQGTQVTVSSAAAEVQLVESGGGLVQPGGSLRLSCAASGRTFSYNPMGWFRQAPGKGRELVAAISRTGGSTYYPDSVEGRFTISRDNAKRMVYLQMNSLRAEDTAVYYCAAAGVRAEDGRVRTLPSEYTFWGQGTQVTVSSA
On to B4, for which the figures for the binding as % of Reference Sequence (=100%) in experiment [1] and in experiment [2] were 1% and 4%, respectively.

B5: Nanobody or Nanobody construct of SEQ ID NO: 47 (VHH)
VHH: EVQLVESGGGLVQPGGSLRLSCAASGSVFKINVMAWYRQAPGKGRELVAGIISGGSTSYADSVKGRFTISRDNAKNTLYLQMNSLRPEDTAVYYCAFITTESDYDLGRRYWGQGTLVTVSS
With B5, the binding as % of Reference Sequence (=100%) in experiment [1] came to 1%; in experiment [4], 4%.

B6: Nanobody or Nanobody construct of SEQ ID NO: 45 (VHH)
VHH: EVQLVESGGGLVQAGGSLRLSCAASRSIGRLDRMGWYRHRTGEPRELVATITGGSSINYGDFVKGRFTISIDNAKNTVYLQMNNLKPEDTAVYYCNFNKYVTSRDTWGQGTQVTVSS
Turning to B6, the binding as % of Reference Sequence (=100%) in experiment [1] came out at 0%; in experiment [4], 22%.

B7: Nanobody or Nanobody construct of SEQ ID NO: 82 (VHH)
VHH: EVQLVESGGGLVQPGGSLRLSCAASRSIGRLDRMGWYRHRPGEPRELVATITGGSSINYGDSVKGRFTISIDNSKNTVYLQMNSLRAEDTAVYYCNFNKYVTSRDTWGQGTLVTVSS
For the molecule B7, the binding as % of Reference Sequence (=100%) in experiment [1] worked out at 96%; in experiment [2], 80%; in experiment [3], 100%; in experiment [4], 56%.

B8: Nanobody or Nanobody construct of SEQ ID NO: 67 (VHH)
VHH: EVQLVESGGGLVQPGGSLRLSCAASRSIGRLDRMGWYRHRPGEPRELVATITGGSSINYGDSVKGRFTISIDNSKNTVYLQMNSLKPEDTAVYYCNFNKYVTSRDTWGQGTLVTVSS
In the case of B8, the binding as % of Reference Sequence (=100%) in experiment [1] stood at 102%; in experiment [2], 117%; in experiment [3], 96%; in experiment [4], 101%.

B9: Nanobody or Nanobody construct of SEQ ID NO: 70 (VHH)
VHH: EVQLVESGGGLVQPGGSLRLSCAASRSIGRLDRMGWYRHRPGEPRELVATITGGSSINYGDSVKGRFTISIDNSKNTVYLQMNSLRPEDTAVYYCNFNKYVTSRDTWGQGTLVQVSS
For the molecule B9, the binding as % of Reference Sequence (=100%) was 90% in experiment [1], 105% in experiment [2], 98% in experiment [3] and 106% in experiment [4].

B10: Nanobody or Nanobody construct of SEQ ID NO: 65 (VHH)
VHH: EVQLVESGGGLVQAGGSLRLSCAASRSIGRLDRMGWYRHRPGEPRELVATITGGSSINYGDSVKGRFTISIDNSKNTVYLQMNSLRPEDTAVYYCNFNKYVTSRDTWGQGTLVTVSS
B10: the binding as % of Reference Sequence (=100%) in experiment [1] turned out to be 73%; in experiment [2], 121%; in experiment [3], 64%; in experiment [4] it was 23%.

B11: Nanobody or Nanobody construct of SEQ ID NO: 71 (VHH)
VHH: EVQLVESGGGLVQPGGSLRLSCAASRSIGRLDRMGWYRHRPGEPRELVATITGGSSINYGDSVKGRFTISIDNSKNTVYLQMNSLRPEDTAVYYCNFNKYVTSRDTWGQGTLVTVSG
On to B11, for which the binding as % of Reference Sequence (=100%) was determined as 88% in experiment [1], 105% in experiment [2], 87% in experiment [3] and 44% in experiment [4].

B12: Nanobody or Nanobody construct of SEQ ID NO: 80 (VHH)
VHH: EVQLVESGGGLVQPGGSLRLSCAASRSIGRLDRMGWYRHRPGEPRELVATITGGSSINYGDSVKGRFTISIDNSKNTVYLQMNSLRPEDTAVYYCNFNKYVTSRDTWGQGTLVQVGG
As for B12, the binding as % of Reference Sequence (=100%) in experiment [1] was 65%; in experiment [2], 5%; in experiment [3], 58%; in experiment [4], 51%.

B13: Nanobody or Nanobody construct of SEQ ID NO: 69 (VHH)
VHH: EVQLVESGGGLVQPGGSLRLSCAASRSIGRLDRMGWYRHRPGEPRELVATITGGSSINYGDSVKGRFTISIDNSKNTVYLQMNSLRPEDTAVYYCNFNKYVTSRDTWGQGTQVTVSS
With B13, the binding as % of Reference Sequence (=100%) amounted to 80% in experiment [1], 120% in experiment [2], 84% in experiment [3] and 106% in experiment [4].

B14: Nanobody or Nanobody construct of SEQ ID NO: 81 (VHH)
VHH: EVQLVESGGGVVQPGGSLRLSCAASRSIGRLDRMGWYRHRPGEPRELVATITGGSSINYGDSVKGRFTISIDNSKNTVYLQMNSLRPEDTAVYYCNFNKYVTSRDTWGQGTLVTVSS
B14: the binding as % of Reference Sequence (=100%) turned out to be 94% in experiment [1], 50% in experiment [2], 89% in experiment [3] and 75% in experiment [4].

B15: Nanobody or Nanobody construct of SEQ ID NO: 78 (VHH)
VHH: EVQLVESGGGLVRPGGSLRLSCAASRSIGRLDRMGWYRHRPGEPRELVATITGGSSINYGDSVKGRFTISIDNSKNTVYLQMNSLRPEDTAVYYCNFNKYVTSRDTWGQGTLVTVSS
B15: the binding as % of Reference Sequence (=100%) stood at 96% in experiment [1], 96% in experiment [2], 100% in experiment [3] and 1% in experiment [4].

B16: Nanobody or Nanobody construct of SEQ ID NO: 66 (VHH)
VHH: EVQLVESGGGSVQPGGSLRLSCAASRSIGRLDRMGWYRHRPGEPRELVATITGGSSINYGDSVKGRFTISIDNSKNTVYLQMNSLRPEDTAVYYCNFNKYVTSRDTWGQGTLVTVSS
B16: the binding as % of Reference Sequence (=100%) in experiment [1] came to 81%; in experiment [2], 29%; in experiment [3], 84%; in experiment [4], 48%.

B17: Nanobody or Nanobody construct of SEQ ID NO: 84 (VHH)
VHH: EVQLVESGGGLVQPGGSLRLSCAASRSIGRLDRMGWYRHRPGEPRELVATITGGSSINYGDSVKGRFTISIDNSKNTVYLQMNSLRPEDTAVYYCNFNKYVTSRDTWGQGTLVTVGS
In the case of B17, the binding as % of Reference Sequence (=100%) turned out to be 84% in experiment [1], 50% in experiment [2], 83% in experiment [3] and 91% in experiment [4].

B18: Nanobody or Nanobody construct of SEQ ID NO: 83 (VHH)
VHH: EVQLVESGGGLVQPGGSLRLSCAASRSIGRLDRMGWYRHRPGEPRELVATITGGSSINYGDSVKGRFTISIDNSKNTVYLQMNSLRPEDAAVYYCNFNKYVTSRDTWGQGTLVTVSS
As for B18, the binding as % of Reference Sequence (=100%) in experiment [1] worked out at 56%; in experiment [2] it was 73%; in experiment [3], 61%; in experiment [4] it was 79%.

B19: Nanobody or Nanobody construct of SEQ ID NO: 68 (VHH)
VHH: EVQLVESGGGLVQAGGSLRLSCAASRSIGRLDRMGWYRHRPGEPRELVATITGGSSINYGDSVKGRFTISIDNSKNTVYLQMNSLRPEDTAVYYCNFNKYVTSRDTWGQGTQVTVSS
As to B19, the binding as % of Reference Sequence (=100%) in experiment [1] is 38%; in experiment [2] it was 115%; in experiment [3], 49%; in experiment [4], 26%.

B20: Nanobody or Nanobody construct of SEQ ID NO: 43 (VHH)
chain: DVQLVESGGGLVQPGGSLRLSCAASGFILDYYAIGWFRQAPGKEREGVLCIDASDDITYYADSVKGRFTISRDNSKNTVYLQMNSLRPEDTAVYYCATPIGLSSSCLLEYDYDYWGQGTLVTVSSGGGGSGGGSEVQLLESGGGLVQPGGSLRLSCAASGFTFRSFGMSWVRQAPGKGPEWVSSISGSGSDTLYADSVKGRFTISRDNSKNTLYLQMNSLRPEDTAVYYCTIGGSLSRSSQGTLVTVSSA
On to B20, for which the binding as % of Reference Sequence (=100%) in experiment [1] was 3%; in experiment [2] it was 20%; in experiment [4], 3%.
